According to article PMC3157015 (Biochemical and biophysical research communications, 2011):
No end group written: not given here.

Legend:
[1] = target: T1, Glutaminase Interacting Protein (GIP), recombinant (UniProt O14907 1-124); test: NMR titration
T1 sequence (looked up): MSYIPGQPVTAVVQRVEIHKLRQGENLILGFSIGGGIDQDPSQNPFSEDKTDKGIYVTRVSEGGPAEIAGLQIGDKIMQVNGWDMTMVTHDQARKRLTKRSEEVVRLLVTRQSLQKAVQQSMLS

[2] = target: T1, Glutaminase Interacting Protein (GIP), …; test: NMR titration; remark: listed apart in the source

- KD from residue A66 of GIP [1]: 86.6 µM
- KD from residue D38 of GIP [1]: 92.5 µM
- KD from residue E17 of GIP [1]: 64.8 µM
- KD from residue E62 of GIP [1]: 102 µM
- KD from residue E102 of GIP [1]: 118 µM
- KD from residue F46 of GIP [1]: 138 µM
- KD from residue L71 of GIP [1]: 85.8 µM
- KD from residue N81 of GIP [1]: 84.3 µM
- KD from residue T86 of GIP [1]: 104 µM
- Kd [2]: 97.8 µM
B1: BAI2 C-terminal peptide (RDGDFQTEV-COOH) (peptide)
peptide: RDGDFQTEV-OH
